Where a chain is given by its changes, count along the chain named. Like-named read-outs stand apart in the source and are kept apart here.

Assay [1] has as its target T1, integrin α5β1 (UniProt P08648 42-1049; P05556 21-798). Nature of the assay: cell-based or functional assay.
Assay [2] addresses T2, integrin αvβ3 (UniProt P06756 31-1048; P05106 27-788). The assay is described as follows: cell-based or functional assay.
The target of assay [3] is T3, integrin αIIbβ3 (UniProt P08514 32-1039; P05106 27-788). The assay is described as follows: cell-based or functional assay.
T3 sequence (P08514 32-1039, chain 1 of 2): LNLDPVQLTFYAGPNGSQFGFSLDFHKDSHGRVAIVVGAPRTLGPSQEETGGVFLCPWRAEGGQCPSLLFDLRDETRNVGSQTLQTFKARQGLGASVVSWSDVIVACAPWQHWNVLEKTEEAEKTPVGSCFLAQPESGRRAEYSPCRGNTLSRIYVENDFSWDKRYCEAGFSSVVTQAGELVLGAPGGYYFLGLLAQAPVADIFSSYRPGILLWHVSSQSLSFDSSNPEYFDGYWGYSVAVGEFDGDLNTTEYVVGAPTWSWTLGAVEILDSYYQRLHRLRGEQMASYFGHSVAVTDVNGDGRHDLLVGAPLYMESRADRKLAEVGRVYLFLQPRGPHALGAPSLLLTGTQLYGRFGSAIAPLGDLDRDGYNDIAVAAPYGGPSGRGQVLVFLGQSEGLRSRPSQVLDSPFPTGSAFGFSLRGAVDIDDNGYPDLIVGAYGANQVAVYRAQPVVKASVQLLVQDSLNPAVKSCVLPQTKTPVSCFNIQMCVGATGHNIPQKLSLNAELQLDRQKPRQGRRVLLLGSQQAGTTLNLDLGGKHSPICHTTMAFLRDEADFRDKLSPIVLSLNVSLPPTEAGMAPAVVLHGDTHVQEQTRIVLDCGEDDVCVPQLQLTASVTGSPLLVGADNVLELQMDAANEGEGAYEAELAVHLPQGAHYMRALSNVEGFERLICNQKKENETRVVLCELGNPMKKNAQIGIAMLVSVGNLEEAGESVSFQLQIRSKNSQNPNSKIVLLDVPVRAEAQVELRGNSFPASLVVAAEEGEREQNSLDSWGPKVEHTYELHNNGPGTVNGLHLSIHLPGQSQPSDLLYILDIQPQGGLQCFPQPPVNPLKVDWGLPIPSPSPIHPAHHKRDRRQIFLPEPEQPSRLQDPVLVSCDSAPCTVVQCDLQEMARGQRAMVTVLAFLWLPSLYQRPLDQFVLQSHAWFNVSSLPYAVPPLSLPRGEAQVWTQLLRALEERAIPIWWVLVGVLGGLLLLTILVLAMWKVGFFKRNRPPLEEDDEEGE
T3 sequence (P05106 27-788, chain 2 of 2): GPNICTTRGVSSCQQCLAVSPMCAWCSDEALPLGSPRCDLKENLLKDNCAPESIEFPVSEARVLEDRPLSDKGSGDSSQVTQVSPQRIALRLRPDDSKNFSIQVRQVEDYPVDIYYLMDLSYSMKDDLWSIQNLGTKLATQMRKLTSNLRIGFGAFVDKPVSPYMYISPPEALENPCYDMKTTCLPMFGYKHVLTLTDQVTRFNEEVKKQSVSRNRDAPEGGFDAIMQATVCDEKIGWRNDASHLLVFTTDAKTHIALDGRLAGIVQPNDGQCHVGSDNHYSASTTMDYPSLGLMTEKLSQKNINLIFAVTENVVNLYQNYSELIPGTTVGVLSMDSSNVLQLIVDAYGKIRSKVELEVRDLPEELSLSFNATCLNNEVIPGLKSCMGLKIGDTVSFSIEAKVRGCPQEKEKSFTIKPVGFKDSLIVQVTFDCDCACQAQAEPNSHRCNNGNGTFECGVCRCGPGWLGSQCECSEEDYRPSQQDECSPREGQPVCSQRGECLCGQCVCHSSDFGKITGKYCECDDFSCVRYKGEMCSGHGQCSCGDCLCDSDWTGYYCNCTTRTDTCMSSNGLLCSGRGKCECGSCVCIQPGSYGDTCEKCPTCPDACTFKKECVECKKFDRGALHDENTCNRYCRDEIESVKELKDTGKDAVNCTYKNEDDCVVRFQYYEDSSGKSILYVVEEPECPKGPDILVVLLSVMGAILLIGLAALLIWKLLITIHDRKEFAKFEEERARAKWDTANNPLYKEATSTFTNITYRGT
Assay [4] deals with T3, integrin αIIbβ3. Nature of the assay: cell adhesion inhibition assay (Table 4).
Method: (§1) Briefly, 96-well Immulon-2 microtiter plates (Costar, Corning, N.Y.) were coated with 100 μl of phosphate-buffered saline (PBS: 10 mM phosphate buffer, 0.15M NaCl, pH 7.4) containing substrates at a concentration of 50-500 nM, and incubated overnight at 4° C. […] Non-specific protein binding sites were blocked by incubating each well with 200 μl of heat-denatured 1% bovine serum albumin (BSA, Calbiochem) at room temperature (25° C.) for 1.5 hr. Afterwards, the blocking heat-denatured BSA was discarded and each well was washed twice with 200 μl of PBS.
(§2) Chinese hamster ovary (CHO) cells expressing αvβ3 (CHO-αvβ3) and α5β1 (CHO-α5β1) integrins were maintained in 100 μl of Dulbecco's Modified Eagle's Medium (DMEM) medium. Both CHO-αvβ3 and CHO-α5β1 were kind gifts of Dr. Y. Takada (Scripps Research Institute) established by stable transfection with a neomycin-resistant gene. CHO cells growing in log phase were detached by trypsinization and used in the assay at 3×10⁵ cells/ml. FNIII 9-10, FNIII 10 and variants thereof were added to the cultured cells at the concentrations of 0.001-500 μM and incubated at 37° C. in 5% CO₂ for 15 minutes. The treated cells were then added into the coated plate and incubated at 37° C. in 5% CO₂ for 1 hour. The incubation solution was then discarded and non-adhered cells were removed by washing twice with 200 μl PBS.
(§3) Bound cells were quantified by crystal violet staining. Briefly, the well was fixed with 100 μl of 10% formalin for 10 minutes and dried. Fifty microliters of 0.05% crystal violet were then added into the well at room temperature for 20 minutes. Each well was washed with 200 μl of distilled water four times and dried. Colorization was carried out by adding 150 μl of colorizing solution (50% alcohol and 0.1% acetic acid). The resulting absorbance was read at 600 nm and the readings were correlated with the number of adhering cells.
For assay [5], the target named is T2, integrin αvβ3. The assay is described as follows: cell adhesion inhibition assay (Table 4).
Method: as §1, §2, §3
Assay [6] has as its target T2, integrin αvβ3. The assay is described as follows: cell adhesion inhibition assay (Table 5).
Method: as §1
(§4) Chinese hamster ovary (CHO) cells expressing αvβ3 (CHO-αvβ3) and α5β1 (CHO-α5β1) integrins were maintained in 100 μl of Dulbecco's Modified Eagle's Medium (DMEM) medium. Both CHO-αvβ3 and CHO-α5β1 were kind gifts of Dr. Y. Takada (Scripps Research Institute) established by stable transfection with a neomycin-resistant gene. CHO cells growing in log phase were detached by trypsinization and used in the assay at 3×10⁵ cells/ml. FNIII 9-10, FNIII 10 and variants thereof were added to the cultured cells at the concentrations of 0.001-500 μM and incubated at 37° C. in 5% CO₂ for 15 minutes. […]
(§5) Bound cells were quantified by crystal violet staining. […] The resulting absorbance was read at 600 nm and the readings were correlated with the number of adhering cells.
The target in assay [7] is T3, integrin αIIbβ3. The assay is described as follows: cell adhesion inhibition assay (Table 5).
Method: as §1, §4, §5
Assay [8] deals with T1, integrin α5β1. Nature of the assay: cell-based or functional assay. This is another data set of the same source.
The target of assay [9] is T2, integrin αvβ3. The assay is described as follows: cell-based or functional assay. The source holds these as a separate data set.
The target in assay [10] is T3, integrin αIIbβ3. The assay is described as follows: cell-based or functional assay. This is another data set of the same source.

T1 sequence (P08648 42-1049, chain 1 of 2): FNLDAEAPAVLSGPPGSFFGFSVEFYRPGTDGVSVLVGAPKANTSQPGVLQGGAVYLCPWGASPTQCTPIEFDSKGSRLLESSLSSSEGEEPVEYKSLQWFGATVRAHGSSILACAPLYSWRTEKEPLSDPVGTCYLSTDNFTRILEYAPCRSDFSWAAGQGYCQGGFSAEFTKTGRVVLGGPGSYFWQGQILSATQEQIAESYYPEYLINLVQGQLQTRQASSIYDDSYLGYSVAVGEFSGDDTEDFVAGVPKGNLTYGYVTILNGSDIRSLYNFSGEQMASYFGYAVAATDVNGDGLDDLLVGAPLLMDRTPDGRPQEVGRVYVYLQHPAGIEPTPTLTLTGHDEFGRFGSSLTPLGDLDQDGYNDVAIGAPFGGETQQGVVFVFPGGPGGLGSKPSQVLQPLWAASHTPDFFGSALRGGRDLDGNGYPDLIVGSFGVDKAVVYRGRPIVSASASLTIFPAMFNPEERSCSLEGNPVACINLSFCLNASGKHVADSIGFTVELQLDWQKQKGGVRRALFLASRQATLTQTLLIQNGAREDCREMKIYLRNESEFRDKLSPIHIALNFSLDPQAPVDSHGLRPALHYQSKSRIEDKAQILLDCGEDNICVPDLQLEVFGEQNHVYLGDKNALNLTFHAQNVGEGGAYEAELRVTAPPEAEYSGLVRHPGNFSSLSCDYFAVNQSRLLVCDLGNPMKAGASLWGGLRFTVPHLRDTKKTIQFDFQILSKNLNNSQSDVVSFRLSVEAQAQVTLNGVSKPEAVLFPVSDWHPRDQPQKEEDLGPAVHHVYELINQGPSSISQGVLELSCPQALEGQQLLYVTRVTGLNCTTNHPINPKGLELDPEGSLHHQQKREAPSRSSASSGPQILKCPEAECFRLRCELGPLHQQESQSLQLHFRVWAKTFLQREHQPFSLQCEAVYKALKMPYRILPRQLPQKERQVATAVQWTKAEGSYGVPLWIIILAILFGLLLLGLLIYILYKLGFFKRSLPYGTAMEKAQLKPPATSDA
T1 sequence (P05556 21-798, chain 2 of 2): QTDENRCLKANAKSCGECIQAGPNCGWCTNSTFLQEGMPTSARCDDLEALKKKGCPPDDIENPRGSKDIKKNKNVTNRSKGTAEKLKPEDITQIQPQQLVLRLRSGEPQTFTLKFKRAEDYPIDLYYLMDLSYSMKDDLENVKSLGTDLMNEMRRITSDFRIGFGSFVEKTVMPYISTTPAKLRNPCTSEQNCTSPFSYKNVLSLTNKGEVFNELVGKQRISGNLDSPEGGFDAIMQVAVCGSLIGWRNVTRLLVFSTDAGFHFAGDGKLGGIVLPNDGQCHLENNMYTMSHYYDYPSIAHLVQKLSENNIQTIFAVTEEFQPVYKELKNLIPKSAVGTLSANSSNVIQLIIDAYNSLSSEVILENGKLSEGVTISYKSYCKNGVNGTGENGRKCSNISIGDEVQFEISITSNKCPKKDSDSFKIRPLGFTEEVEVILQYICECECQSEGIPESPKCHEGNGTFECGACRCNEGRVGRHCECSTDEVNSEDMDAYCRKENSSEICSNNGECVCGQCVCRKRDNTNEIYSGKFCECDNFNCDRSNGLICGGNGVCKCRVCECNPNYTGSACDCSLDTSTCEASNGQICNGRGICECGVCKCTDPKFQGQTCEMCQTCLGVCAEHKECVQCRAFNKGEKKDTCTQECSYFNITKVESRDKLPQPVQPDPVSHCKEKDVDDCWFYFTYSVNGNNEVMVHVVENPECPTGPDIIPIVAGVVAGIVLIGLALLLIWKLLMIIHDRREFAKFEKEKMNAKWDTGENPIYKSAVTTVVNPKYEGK
T2 sequence (P06756 31-1048, chain 1 of 2): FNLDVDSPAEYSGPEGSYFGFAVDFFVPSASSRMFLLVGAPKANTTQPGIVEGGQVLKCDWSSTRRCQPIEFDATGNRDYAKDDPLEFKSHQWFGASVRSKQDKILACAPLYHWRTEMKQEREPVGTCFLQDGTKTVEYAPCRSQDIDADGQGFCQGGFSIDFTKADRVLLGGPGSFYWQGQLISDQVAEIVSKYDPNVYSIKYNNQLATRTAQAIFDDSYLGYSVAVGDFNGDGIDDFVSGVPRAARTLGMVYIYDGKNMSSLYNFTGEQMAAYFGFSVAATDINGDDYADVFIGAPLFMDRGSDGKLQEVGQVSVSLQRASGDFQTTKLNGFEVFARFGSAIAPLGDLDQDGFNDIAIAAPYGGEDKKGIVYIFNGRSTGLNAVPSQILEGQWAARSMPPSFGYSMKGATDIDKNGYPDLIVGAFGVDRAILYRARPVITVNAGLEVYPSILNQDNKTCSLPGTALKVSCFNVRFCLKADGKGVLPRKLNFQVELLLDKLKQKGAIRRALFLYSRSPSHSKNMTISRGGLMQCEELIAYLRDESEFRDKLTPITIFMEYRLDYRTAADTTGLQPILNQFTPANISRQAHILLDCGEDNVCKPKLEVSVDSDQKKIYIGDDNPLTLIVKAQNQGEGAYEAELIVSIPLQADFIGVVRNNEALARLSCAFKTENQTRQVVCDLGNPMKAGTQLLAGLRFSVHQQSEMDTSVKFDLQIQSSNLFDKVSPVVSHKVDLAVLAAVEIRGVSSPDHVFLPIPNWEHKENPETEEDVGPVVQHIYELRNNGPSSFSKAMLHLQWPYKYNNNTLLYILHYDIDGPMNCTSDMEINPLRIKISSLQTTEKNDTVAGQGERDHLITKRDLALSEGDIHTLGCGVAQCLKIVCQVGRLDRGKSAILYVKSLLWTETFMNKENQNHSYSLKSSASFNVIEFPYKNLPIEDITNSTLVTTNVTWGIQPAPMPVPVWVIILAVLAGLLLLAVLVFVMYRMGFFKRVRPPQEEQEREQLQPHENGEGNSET
T2 sequence (P05106 27-788, chain 2 of 2): as the sequence (P05106 27-788, chain 2 of 2) above

B1: Wild type FNIII 10 (SEQ ID NO: 2, …) (ligand)
chain: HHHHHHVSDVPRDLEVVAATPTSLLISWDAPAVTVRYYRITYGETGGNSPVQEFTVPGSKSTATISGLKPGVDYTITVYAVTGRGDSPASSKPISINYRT
notes: also called FNIII 10 wild type; human fibronectin type III domain module 10
In the case of B1, the “IC50, cell adhesion assay” value in the assay with integrin α5β1 [1] is above 4.59 µM; with integrin αvβ3 [2], 4.58 µM; with integrin αIIbβ3 [3], above 9.18 µM. In addition, the “percentage of inhibition, cell adhesion assay” value was 39% in the assay with integrin α5β1 [1] and 0% with integrin αIIbβ3 [3]. Also, the “IC50, inhibition of ADP-induced platelet aggregation” value (from here on “IC50, inhibition”) in the assay with integrin αIIbβ3 [3] is around 45 µM. The binding result with integrin αIIbβ3 [4] is on record as “no binding (tested: >9180 nM)”.

B2: FNIII 10 C-X7-C (SEQ ID NO: 6, VCPRGDMPDCSK) (designed binder)
chain: HHHHHHVSDVPRDLEVVAATPTSLLISWDAPAVTVRYYRITYGETGGNSPVQEFTVPGSKSTATISGLKPGVDYTITVYAVCPRGDMPDCSKPISINYRT
In the case of B2, in the assay with integrin α5β1 [1], the “IC50, cell adhesion assay” value is above 73.2 µM and the “percentage of inhibition, cell adhesion assay” value was 42%. In the assay with integrin αvβ3 [2], the “IC50, cell adhesion assay” value was 0.093 µM. Moreover, in the assay with integrin αIIbβ3 [3], the “IC50, cell adhesion assay” value was above 62.1 µM; the “IC50, inhibition” value is around 62 µM; the “percentage of inhibition, cell adhesion assay” value was 19%. The “fold increase of binding affinity against SEQ ID NO:48” value in the assay with integrin αvβ3 [5] was 7 fold. Further, the binding result in the assay with integrin αIIbβ3 [4] is on record as “no binding (tested: >62124 nM)”.

B3: FNIII 10 variant (SEQ ID NO: 48, VTPRGDMPDSSK) (designed binder)
chain: B2 chain with C82T, C90S
notes: also called FNIII 10 (PRGDMPD) protein; FNIII 10 PRGDMPD variant
B3: in the assay with integrin α5β1 [1], the “IC50, cell adhesion assay” value is above 6.8 µM and the “percentage of inhibition, cell adhesion assay” value was determined as 31.7%. Further, the “IC50, cell adhesion assay” value with integrin αvβ3 [2] came to 0.645 µM. Moreover, in the assay with integrin αIIbβ3 [3], the “IC50, cell adhesion assay” value is above 9.07 µM; the “IC50, inhibition” value was above 22.2 µM; the “percentage of inhibition, ADP-induced platelet aggregation” value is 4%; the “percentage of inhibition, cell adhesion assay” value was found to be 0%. Moreover, the binding result with integrin αIIbβ3 [4] was “no binding (tested: >9073 nM)”.

B4: FNIII 10 C-X7-C (SEQ ID NO: 10, VCARGDNPDCSK) (designed binder)
chain: B2 chain with P83A, M87N
As for B4, in the assay with integrin α5β1 [1], the “IC50, cell adhesion assay” value was above 4.55 µM and the “percentage of inhibition, cell adhesion assay” value stood at 0%. The “IC50, cell adhesion assay” value with integrin αvβ3 [2] was determined as 0.432 µM. Moreover, in the assay with integrin αIIbβ3 [3], the “IC50, cell adhesion assay” value was above 4.55 µM; the “IC50, inhibition” value was above 25.5 µM; the “percentage of inhibition, ADP-induced platelet aggregation” value is 2%; the “percentage of inhibition, cell adhesion assay” value came to 0%. For the same molecule, in the assay with integrin αIIbβ3 [4], the binding result is “no binding (tested: >4546 nM)”.

B5: FNIII 10 C-X7-C (SEQ ID NO: 8, VCPRGDWNECSK) (designed binder)
chain: B2 chain with M87W, P88N, D89E
notes: Engineered intradomain disulfide bond Cys1491-Cys1499; exact N-terminus uncertain
For the molecule B5, the results for the “IC50, cell adhesion assay” value in the assay with integrin α5β1 [1], with integrin αvβ3 [2] and with integrin αIIbβ3 [3] were above 4.49 µM, 0.418 µM and above 4.49 µM, respectively. For the same molecule, the figures for the “percentage of inhibition, cell adhesion assay” value in the assay with integrin α5β1 [1] and in the assay with integrin αIIbβ3 [3] were 48% and 0%, respectively. Besides, the “IC50, inhibition” value with integrin αIIbβ3 [3] is around 10 µM. Moreover, the binding result with integrin αIIbβ3 [4] is on record as “no binding (tested: >4494 nM)”.

B6: Control FNIII 10 mutant (SEQ ID NO: 50, VTPRGDWNEGSK) (designed binder)
chain: B2 chain with C82T, M87W, P88N, D89E, C90G
notes: exact N-terminus uncertain; also called FNIII 10 variant
As to B6, in the assay with integrin α5β1 [1], the “IC50, cell adhesion assay” value was above 4.51 µM and the “percentage of inhibition, cell adhesion assay” value was found to be 32.5%. In addition, in the assay with integrin αvβ3 [2], the “IC50, cell adhesion assay” value was 0.908 µM. In addition, in the assay with integrin αIIbβ3 [3], the “IC50, cell adhesion assay” value is above 9.03 µM; the “IC50, inhibition” value is above 6.45 µM; the “percentage of inhibition, ADP-induced platelet aggregation” value was found to be 14%; the “percentage of inhibition, cell adhesion assay” value was determined as 0%. Further, in the assay with integrin αIIbβ3 [4], the binding result is “no binding (tested: >9027 nM)”.

B7: Wild type FNIII 9-10 (SEQ ID NO: 4) (ligand)
chain: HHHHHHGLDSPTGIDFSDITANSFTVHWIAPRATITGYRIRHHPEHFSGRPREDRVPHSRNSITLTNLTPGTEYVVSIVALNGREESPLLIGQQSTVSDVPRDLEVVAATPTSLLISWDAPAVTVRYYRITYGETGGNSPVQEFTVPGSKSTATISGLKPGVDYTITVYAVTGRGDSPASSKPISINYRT
notes: exact N-terminus uncertain; also called Wild-type human FN III 9-10; Control
On to B7, for which the results for the binding result in the assay with integrin αvβ3 [6] and with integrin αIIbβ3 [7] were “no binding (tested: >3119 nM)” and “no binding (tested: >4798 nM)”, respectively. The “IC50, cell adhesion assay” value with integrin α5β1 [8] is 0.245 µM; in the assay with integrin αvβ3 [9], above 3.12 µM; in the assay with integrin αIIbβ3 [10] it was above 4.8 µM. For the same molecule, the “percentage of inhibition, cell adhesion assay” value was found to be 33.2% with integrin αvβ3 [9] and 0% with integrin αIIbβ3 [10]. Besides, the “IC50, inhibition” value with integrin αIIbβ3 [10] was around 20 µM.

The values above are taken from patent publication US20150218251A1 (NATIONAL CHENG KUNG UNIVERSITY, published 2015).
